The target of experiment [1] is gp41 of HIV HXB2 (from the HXB2 gp160 gene, on pseudotyped virus) (HIV-1 HXB2, UniProt P04578 33-856). Put plainly: cell-based or functional assay.
For experiment [2], the target named is gp41 of HIV JRFL (from the JRFL gp160 gene, on pseudotyped virus) (HIV-1 JRFL). Kind of experiment: cell-based or functional assay.

B1: end-locked five-helix protein having SEQ ID NO.: 2 (designed binder)
chain: MCGGGSQLLSGIVQQQNNLLRAIEAQQHLLQLTVWGIKQLQASGGSGGSWMEWDREINNYTSLIHSLIEESQNQQEKNEQELLSGGCGGSQLLSGIVQQQNNLLRAIEAQQHLLQLTVWGIKQLQASGGCGGSWMEWDREINNYTSLIHSLIEESQNQQEKNEQELLSGGSGGSQLLSGIVQQQNNLLRAIEAQQHLLQLTVWGIKQLQASGGGC
modifications: disulfide bond between the cysteine of the N-terminal linker and the cysteine of inside linker 2; disulfide bond between the cysteine of the C-terminal linker and the cysteine of inside linker 3 (as in FIG. 3b)
Take B1: the “EC50 in the virus-cell fusion assay (HIV luciferase assay, HOS-CD4 cells)” value in experiment [1] was 15 nM. The “EC50 in the virus-cell fusion assay (HIV luciferase assay, HOS-CD4-CCR5 cells)” value in experiment [2] was 0.75 nM.

For the origin of these results see patent publication US20030125515A1 (published 2003).
